Laboratory results reported in patent US20220135638A1 (Takeda / Millennium, published 2022).
Numbered stars: 1 amine (or outer) side, 2 acyl side, 3 side chain; on linkers, the order of the positions; unused ones are H or OH. Square brackets hold non-standard residues; d marks the D form. Primed or numbered codes have the meaning given here. Side chains are listed from the residue outwards. Ends that are not written are not given here. * marks the point of attachment. C20 diacid = O=C(O)CCCCCCCCCCCCCCCCCCC(=O)*; C18 diacid = O=C(O)CCCCCCCCCCCCCCCCC(=O)*; C16 diacid = O=C(O)CCCCCCCCCCCCCCC(=O)*; γGlu = O=C(O)[C@H](CCC(=O)[*:2])N[*:1]; Iva = CC[C@](C)(N)C(=O)O; PEG3′ = not defined here; Aib = CC(C)(N)C(=O)O

Experiments:
[1] = target: T1, full-length human GIPR (GenBank NM_000164) with an N-terminal FLAG tag on HEK-293T cells (human), P48546; assay: cell-based or functional assay
T1 chain: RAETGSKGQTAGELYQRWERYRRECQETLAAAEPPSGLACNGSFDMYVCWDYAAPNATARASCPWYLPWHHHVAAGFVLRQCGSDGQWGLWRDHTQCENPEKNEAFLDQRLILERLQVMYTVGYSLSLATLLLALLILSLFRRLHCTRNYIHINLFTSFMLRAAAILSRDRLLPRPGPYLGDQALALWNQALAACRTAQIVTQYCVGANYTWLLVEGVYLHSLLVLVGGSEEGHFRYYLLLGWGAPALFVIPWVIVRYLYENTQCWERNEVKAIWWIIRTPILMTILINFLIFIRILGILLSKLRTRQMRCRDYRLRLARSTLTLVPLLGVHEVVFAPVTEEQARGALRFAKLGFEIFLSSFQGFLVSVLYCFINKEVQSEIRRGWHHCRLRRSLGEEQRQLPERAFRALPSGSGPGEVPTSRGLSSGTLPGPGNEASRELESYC

[2] = target: T2, full-length human GLP-1R (GenBank NM_002062) with an N-terminal FLAG tag on HEK-293T cells (human), P43220; assay: cell-based or functional assay
T2 chain: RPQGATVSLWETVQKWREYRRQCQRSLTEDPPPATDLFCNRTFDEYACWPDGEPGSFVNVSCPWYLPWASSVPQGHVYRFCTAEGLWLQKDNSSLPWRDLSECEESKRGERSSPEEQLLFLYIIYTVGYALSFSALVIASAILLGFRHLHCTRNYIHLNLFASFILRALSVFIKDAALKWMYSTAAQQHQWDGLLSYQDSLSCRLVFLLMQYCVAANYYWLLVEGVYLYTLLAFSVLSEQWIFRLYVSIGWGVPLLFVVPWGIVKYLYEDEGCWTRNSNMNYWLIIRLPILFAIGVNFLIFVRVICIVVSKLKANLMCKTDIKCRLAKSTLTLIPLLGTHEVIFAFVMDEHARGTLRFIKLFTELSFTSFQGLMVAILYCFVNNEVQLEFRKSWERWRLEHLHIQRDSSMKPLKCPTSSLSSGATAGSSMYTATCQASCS

B1: Compound No. 446 (peptide)
peptide: Y[Aib]EGTFISDYSIALDR[Aib]HQ[Aib]NFVNW[Iva]LAQRPSK([Gly-Gly-Gly-Gly-Gly-γGlu-C20 diacid])GAPPPS
modifications: ends and bridges not checked
GIP EC50(pM) [1]: 0.85 pM | GLP EC50 [2]: 891 nM

B2: Compound No. 459 (peptide)
peptide: Y[Aib]EGTFISDYSIALDR[Aib]HQ[Aib]NFVNW[Iva]LAQRPSSGAPPK([Gly-Gly-Gly-Gly-Gly-γGlu-C16 diacid])S
modifications: ends and bridges not checked
GIP EC50(pM) [1]: 0.41 pM | GLP EC50 [2]: > 1000 nM

B3: Compound No. 455 (peptide)
peptide: Y[Aib]EGTFISDYSIALDR[Aib]HQ[Aib]NFVNW[Iva]LAQRPSSGAK([Gly-Gly-Gly-Gly-Gly-γGlu-C20 diacid])PPS
modifications: ends and bridges not checked
GIP EC50(pM) [1]: 2.24 pM | GLP EC50 [2]: > 1000 nM

B4: Compound No. 454 (peptide)
peptide: Y[Aib]EGTFISDYSIALDR[Aib]HQ[Aib]NFVNW[Iva]LAQRPSSGAK([Gly-Gly-Gly-Gly-Gly-γGlu-C18 diacid])PPS
modifications: ends and bridges not checked
GIP EC50(pM) [1]: 1.14 pM | GLP EC50 [2]: > 1000 nM

B5: Compound No. 456 (peptide)
peptide: Y[Aib]EGTFISDYSIALDR[Aib]HQ[Aib]NFVNW[Iva]LAQRPSSGAPK([Gly-Gly-Gly-Gly-Gly-γGlu-C16 diacid])PS
modifications: ends and bridges not checked
GIP EC50(pM) [1]: 0.57 pM | GLP EC50 [2]: > 1000 nM

B6: Compound No. 444 (peptide)
peptide: Y[Aib]EGTFISDYSIALDR[Aib]HQ[Aib]NFVNW[Iva]LAQRPSK([Gly-Gly-Gly-Gly-Gly-γGlu-C16 diacid])GAPPPS
modifications: ends and bridges not checked
GIP EC50(pM) [1]: 0.39 pM | GLP EC50 [2]: > 1000 nM

B7: Compound No. 451 (peptide)
peptide: Y[Aib]EGTFISDYSIALDR[Aib]HQ[Aib]NFVNW[Iva]LAQRPSSGK([Gly-Gly-Gly-Gly-Gly-γGlu-C18 diacid])PPPS
modifications: ends and bridges not checked
GIP EC50(pM) [1]: 0.74 pM | GLP EC50 [2]: > 1000 nM

B8: Compound No. 441 (peptide)
peptide: Y[Aib]EGTFISDYSIALDR[Aib]HQ[Aib]NFVNW[Iva]LAQRPK([Gly-Gly-Gly-Gly-Gly-γGlu-C16 diacid])SGAPPPS
modifications: ends and bridges not checked
GIP EC50(pM) [1]: 0.33 pM | GLP EC50 [2]: > 1000 nM

B9: Compound No. 445 (peptide)
peptide: Y[Aib]EGTFISDYSIALDR[Aib]HQ[Aib]NFVNW[Iva]LAQRPSK([Gly-Gly-Gly-Gly-Gly-γGlu-C18 diacid])GAPPPS
modifications: ends and bridges not checked
GIP EC50(pM) [1]: 0.38 pM | GLP EC50 [2]: > 1000 nM

B10: Compound No. 464 (peptide)
peptide: Y[Aib]EGTFISDYSIALDR[Aib]HQ[Aib]NFVNW[Iva]LAQRPSSGAPPPK([Gly-Gly-Gly-Gly-Gly-γGlu-C20 diacid])
modifications: ends and bridges not checked
GIP EC50(pM) [1]: 1.29 pM | GLP EC50 [2]: 977 nM

B11: Compound No. 453 (peptide)
peptide: Y[Aib]EGTFISDYSIALDR[Aib]HQ[Aib]NFVNW[Iva]LAQRPSSGAK([Gly-Gly-Gly-Gly-Gly-γGlu-C16 diacid])PPS
modifications: ends and bridges not checked
GIP EC50(pM) [1]: 0.6 pM | GLP EC50 [2]: > 1000 nM

B12: Compound No 913 (peptide)
peptide: Y[Aib]EGTFISDYSIALDR[Aib]HQ[Aib]NFVNW[Iva]LAQRK([PEG3′-PEG3′-C20 diacid])SSGAPPPSR
modifications: ends and bridges not checked
GLP EC50 [2]: 575 nM

B13: Compound No. 447 (peptide)
peptide: Y[Aib]EGTFISDYSIALDR[Aib]HQ[Aib]NFVNW[Iva]LAQRPSSK([Gly-Gly-Gly-Gly-Gly-γGlu-C16 diacid])APPPS
modifications: ends and bridges not checked
GIP EC50(pM) [1]: 0.31 pM | GLP EC50 [2]: > 1000 nM

B14: Compound No. 461 (peptide)
peptide: Y[Aib]EGTFISDYSIALDR[Aib]HQ[Aib]NFVNW[Iva]LAQRPSSGAPPK([Gly-Gly-Gly-Gly-Gly-γGlu-C20 diacid])S
modifications: ends and bridges not checked
GIP EC50(pM) [1]: 1.3 pM | GLP EC50 [2]: > 1000 nM

B15: Compound No. 463 (peptide)
peptide: Y[Aib]EGTFISDYSIALDR[Aib]HQ[Aib]NFVNW[Iva]LAQRPSSGAPPPK([Gly-Gly-Gly-Gly-Gly-γGlu-C18 diacid])
modifications: ends and bridges not checked
GIP EC50(pM) [1]: 0.52 pM | GLP EC50 [2]: > 1000 nM

B16: Compound No. 460 (peptide)
peptide: Y[Aib]EGTFISDYSIALDR[Aib]HQ[Aib]NFVNW[Iva]LAQRPSSGAPPK([Gly-Gly-Gly-Gly-Gly-γGlu-C18 diacid])S
modifications: ends and bridges not checked
GIP EC50(pM) [1]: 0.44 pM | GLP EC50 [2]: > 1000 nM

B17: Compound No. 457 (peptide)
peptide: Y[Aib]EGTFISDYSIALDR[Aib]HQ[Aib]NFVNW[Iva]LAQRPSSGAPK([Gly-Gly-Gly-Gly-Gly-γGlu-C18 diacid])PS
modifications: ends and bridges not checked
GIP EC50(pM) [1]: 0.82 pM | GLP EC50 [2]: > 1000 nM

B18: Compound No. 452 (peptide)
peptide: Y[Aib]EGTFISDYSIALDR[Aib]HQ[Aib]NFVNW[Iva]LAQRPSSGK([Gly-Gly-Gly-Gly-Gly-γGlu-C20 diacid])PPPS
modifications: ends and bridges not checked
GIP EC50(pM) [1]: 2.17 pM | GLP EC50 [2]: > 1000 nM

B19: Compound No. 448 (peptide)
peptide: Y[Aib]EGTFISDYSIALDR[Aib]HQ[Aib]NFVNW[Iva]LAQRPSSK([Gly-Gly-Gly-Gly-Gly-γGlu-C18 diacid])APPPS
modifications: ends and bridges not checked
GIP EC50(pM) [1]: 0.54 pM | GLP EC50 [2]: > 1000 nM

B20: Compound No. 442 (peptide)
peptide: Y[Aib]EGTFISDYSIALDR[Aib]HQ[Aib]NFVNW[Iva]LAQRPK([Gly-Gly-Gly-Gly-Gly-γGlu-C18 diacid])SGAPPPS
modifications: ends and bridges not checked
GIP EC50(pM) [1]: 1.01 pM | GLP EC50 [2]: > 1000 nM

B21: Compound No. 450 (peptide)
peptide: Y[Aib]EGTFISDYSIALDR[Aib]HQ[Aib]NFVNW[Iva]LAQRPSSGK([Gly-Gly-Gly-Gly-Gly-γGlu-C16 diacid])PPPS
modifications: ends and bridges not checked
GIP EC50(pM) [1]: 0.4 pM | GLP EC50 [2]: > 1000 nM

B22: Compound No. 468 (peptide)
peptide: Y[Aib]EGTFISDYSIALDR[Aib]HQ[Aib]NFVNW[Iva]LAQRKSSGAPPPS
modifications: not fully specified (residue 31); ends and bridges not checked
GIP EC50(pM) [1]: 0.44 pM | GLP EC50 [2]: > 1000 nM

B23: Compound No. 462 (peptide)
peptide: Y[Aib]EGTFISDYSIALDR[Aib]HQ[Aib]NFVNW[Iva]LAQRPSSGAPPPK([Gly-Gly-Gly-Gly-Gly-γGlu-C16 diacid])
modifications: ends and bridges not checked
GIP EC50(pM) [1]: 0.35 pM | GLP EC50 [2]: > 1000 nM

B24: Compound No. 458 (peptide)
peptide: Y[Aib]EGTFISDYSIALDR[Aib]HQ[Aib]NFVNW[Iva]LAQRPSSGAPK([Gly-Gly-Gly-Gly-Gly-γGlu-C20 diacid])PS
modifications: ends and bridges not checked
GIP EC50(pM) [1]: 1.31 pM | GLP EC50 [2]: > 1000 nM

B25: Compound No. 449 (peptide)
peptide: Y[Aib]EGTFISDYSIALDR[Aib]HQ[Aib]NFVNW[Iva]LAQRPSSK([Gly-Gly-Gly-Gly-Gly-γGlu-C20 diacid])APPPS
modifications: ends and bridges not checked
GIP EC50(pM) [1]: 0.65 pM | GLP EC50 [2]: 912 nM

B26: Compound No. 443 (peptide)
peptide: Y[Aib]EGTFISDYSIALDR[Aib]HQ[Aib]NFVNW[Iva]LAQRPK([Gly-Gly-Gly-Gly-Gly-γGlu-C20 diacid])SGAPPPS
modifications: ends and bridges not checked
GIP EC50(pM) [1]: 0.86 pM | GLP EC50 [2]: 977 nM
